Measurements: article PMC3623637

Columns and labels:
purified protein [1] = substrate: Cc1cc(=O)oc2cc(NC(=O)[C@@H](N)CC(=O)O)ccc12; assay: purified protein; settings: 50 mM Tris-HCl pH 7.5, 37°C
purified protein [2] = substrate: Cc1cc(=O)oc2cc(NC(=O)[C@@H](N)CCC(=O)O)ccc12; assay: purified protein; settings: 50 mM Tris-HCl pH 7.5, 37°C

B1: DNPP-1 (Caenorhabditis elegans) (protein)
chain: MAAALKPSAPEIRKAAQEFINYLNKAVTPFHATQEVKDRLLQAGFTELPESGHWDIQPTSKYFVTKNRSAILAFAVGGSYKPGSGFSIVVGHTDSPCLRVKPISHQKSDKFLQVGVSTYGGGIWRTWFDRDLSVAGLVIVKNGEKLQHKLIDVKKPVLFIPNLAIHLETDRTTFKPNTETELRPILETFAAAGINAPQKPESTGFADPRNITNNHHPQFLGLIAKEAGCQPEDIVDLDLYLYDTNKAAIVGMEDEFISGARLDNQVGTYTAISGLLESLTGESFKNDPQIRIAACFDNEEVGSDSAMGASSSFTEFVLRRLSAGGSTTAFEEAIGKSMLISADQAHATHPNYSAKHEENHRPAFHGGVVVKVNVNQRYATTSTTHAALKQVAFEAQVPLQVVVVRNDSPCGSTVGPILATKLGLQTVDVGCPQLAMHSIREFADTSSIYQATTLYSTFYERLSTVLSNMQ
Purified protein [1]
  Km: 13.58 10^-3 mM
  kcat/Km: 10300 M⁻¹ s⁻¹
Purified protein [2]
  kcat/Km: 15300 M⁻¹ s⁻¹
